Molecular target: Tyrosine-protein kinase transmembrane receptor ROR1 (human, UniProt Q01973 30-937)
Test: cell-based or functional assay

Tyrosine-protein kinase transmembrane receptor ROR1, sequence (Q01973 30-937): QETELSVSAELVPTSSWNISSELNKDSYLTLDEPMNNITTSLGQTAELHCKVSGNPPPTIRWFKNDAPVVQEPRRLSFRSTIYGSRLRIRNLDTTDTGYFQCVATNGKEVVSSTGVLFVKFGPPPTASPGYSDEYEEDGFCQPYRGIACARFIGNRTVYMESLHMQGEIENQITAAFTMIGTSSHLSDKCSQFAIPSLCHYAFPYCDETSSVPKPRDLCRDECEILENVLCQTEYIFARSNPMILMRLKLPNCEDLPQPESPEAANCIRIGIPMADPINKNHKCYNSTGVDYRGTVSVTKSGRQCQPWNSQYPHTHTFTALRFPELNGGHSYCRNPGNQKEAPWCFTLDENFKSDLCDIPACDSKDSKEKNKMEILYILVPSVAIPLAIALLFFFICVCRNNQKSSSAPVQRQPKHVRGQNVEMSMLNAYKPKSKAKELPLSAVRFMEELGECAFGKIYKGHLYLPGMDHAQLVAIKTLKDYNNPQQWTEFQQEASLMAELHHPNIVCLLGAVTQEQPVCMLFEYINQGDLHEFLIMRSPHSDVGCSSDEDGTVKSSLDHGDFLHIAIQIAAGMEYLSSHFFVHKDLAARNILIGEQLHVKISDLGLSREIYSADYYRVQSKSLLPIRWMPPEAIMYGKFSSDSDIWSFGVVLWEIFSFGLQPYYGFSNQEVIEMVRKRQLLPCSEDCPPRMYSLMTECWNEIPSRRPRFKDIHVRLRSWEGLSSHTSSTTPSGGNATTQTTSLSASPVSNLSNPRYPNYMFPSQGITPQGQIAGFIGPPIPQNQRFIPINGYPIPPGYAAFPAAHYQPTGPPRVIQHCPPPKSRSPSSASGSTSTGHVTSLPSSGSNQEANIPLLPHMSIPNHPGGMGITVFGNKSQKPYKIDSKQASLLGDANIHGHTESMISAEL

B1: H10-v3 scCAR (other)
chain: EVKLVESGGGLVKPGGSLKLSCAASGFTFSSYAMSWVRQTPEKRLEWVASISTGASAYFPDSVKGRFTISRDNARNILYLQMSSLRSEDTAMYYCARITTSTWYFDVWGAGTTVTVSSGGGGSGGGGSGGGGSDIKMTQSPSSMYASLGERVTITCKASQDINSYLSWFQQKPGKSPKTLIYRANRLVDGVPSRFSGSGSGQDYSLTISSLEYEDMGIYYCLQYDEFPYTFGGGTKLEIKTTTPAPRPPTPAPTIASQPLSLRPEACRPAAGGAVHTRGLDFACDIYIWAPLAGTCGVLLLSLVITLYCKRGRKKLLYIFKQPFMRPVQTTQEEDGCSCRFPEEEEGGCELRVKFSRSADAPAYQQGQNQLYNELNLGRREEYDVLDKRRGRDPEMGGKPRRKNPQEGLYNELQKDKMAEAYSEIGMKGERRRGKGHDGLYQGLSTATKDTYDALHMQALPPR
cytotoxic activity of scCAR-modified T cells, specific lysis of PC-3 cells: > 20%
degranulation of scCAR-modified T cells (primary screening): ≥ 20%
degranulation of scCAR-modified T cells (secondary screening): ≥ 20%
production of IFNγ by scCAR-modified T cells: ≥ 1500 pg/mL

B2: D10-v1 scCAR (other)
chain: QVQLKESGPGLVAPSQTLSITCTVSGFSLTSYGVHWVRQPPGKGLEWLGVIWAGGFTNYNSALKSRLSISKDNSKSQVLLKMTSLQTDDTAMYYCARRGSSYSMDYWGQGTSVTVSSGGGGSGGGGSGGGGSEIVLSQSPAITAASLGQKVTITCSASSNVSYIHWYQQRSGTSPRPWIYEISKLASGVPVRFSGSGSGTSYSLTISSMEAEDAAIYYCQQWNYPLITFGSGTKLEIQGLAVSTISSFFPPGYQIYIWAPLAGTCGVLLLSLVITLYCKRGRKKLLYIFKQPFMRPVQTTQEEDGCSCRFPEEEEGGCELRVKFSRSADAPAYQQGQNQLYNELNLGRREEYDVLDKRRGRDPEMGGKPRRKNPQEGLYNELQKDKMAEAYSEIGMKGERRRGKGHDGLYQGLSTATKDTYDALHMQALPPR
degranulation of scCAR-modified T cells (primary screening): ≥ 20%

B3: D10-v3 scCAR (other)
chain: QVQLKESGPGLVAPSQTLSITCTVSGFSLTSYGVHWVRQPPGKGLEWLGVIWAGGFTNYNSALKSRLSISKDNSKSQVLLKMTSLQTDDTAMYYCARRGSSYSMDYWGQGTSVTVSSGGGGSGGGGSGGGGSEIVLSQSPAITAASLGQKVTITCSASSNVSYIHWYQQRSGTSPRPWIYEISKLASGVPVRFSGSGSGTSYSLTISSMEAEDAAIYYCQQWNYPLITFGSGTKLEIQTTTPAPRPPTPAPTIASQPLSLRPEACRPAAGGAVHTRGLDFACDIYIWAPLAGTCGVLLLSLVITLYCKRGRKKLLYIFKQPFMRPVQTTQEEDGCSCRFPEEEEGGCELRVKFSRSADAPAYQQGQNQLYNELNLGRREEYDVLDKRRGRDPEMGGKPRRKNPQEGLYNELQKDKMAEAYSEIGMKGERRRGKGHDGLYQGLSTATKDTYDALHMQALPPR
cytotoxic activity of scCAR-modified T cells, specific lysis of PC-3 cells: > 20%
degranulation of scCAR-modified T cells (primary screening): ≥ 20%
degranulation of scCAR-modified T cells (secondary screening): ≥ 20%
production of IFNγ by scCAR-modified T cells: ≥ 1500 pg/mL

B4: H10-v1 scCAR (other)
chain: EVKLVESGGGLVKPGGSLKLSCAASGFTFSSYAMSWVRQTPEKRLEWVASISTGASAYFPDSVKGRFTISRDNARNILYLQMSSLRSEDTAMYYCARITTSTWYFDVWGAGTTVTVSSGGGGSGGGGSGGGGSDIKMTQSPSSMYASLGERVTITCKASQDINSYLSWFQQKPGKSPKTLIYRANRLVDGVPSRFSGSGSGQDYSLTISSLEYEDMGIYYCLQYDEFPYTFGGGTKLEIKGLAVSTISSFFPPGYQIYIWAPLAGTCGVLLLSLVITLYCKRGRKKLLYIFKQPFMRPVQTTQEEDGCSCRFPEEEEGGCELRVKFSRSADAPAYQQGQNQLYNELNLGRREEYDVLDKRRGRDPEMGGKPRRKNPQEGLYNELQKDKMAEAYSEIGMKGERRRGKGHDGLYQGLSTATKDTYDALHMQALPPR
degranulation of scCAR-modified T cells (primary screening): ≥ 20%

B5: H10-v5 scCAR (other)
chain: EVKLVESGGGLVKPGGSLKLSCAASGFTFSSYAMSWVRQTPEKRLEWVASISTGASAYFPDSVKGRFTISRDNARNILYLQMSSLRSEDTAMYYCARITTSTWYFDVWGAGTTVTVSSGGGGSGGGGSGGGGSDIKMTQSPSSMYASLGERVTITCKASQDINSYLSWFQQKPGKSPKTLIYRANRLVDGVPSRFSGSGSGQDYSLTISSLEYEDMGIYYCLQYDEFPYTFGGGTKLEIKEPKSPDKTHTCPPCPAPPVAGPSVFLFPPKPKDTLMIARTPEVTCVVVDVSHEDPEVKFNWYVDGVEVHNAKTKPREEQYNSTYRVVSVLTVLHQDWLNGKEYKCKVSNKALPAPIEKTISKAKGQPREPQVYTLPPSRDELTKNQVSLTCLVKGFYPSDIAVEWESNGQPENNYKTTPPVLDSDGSFFLYSKLTVDKSRWQQGNVFSCSVMHEALHNHYTQKSLSLSPGKIYIWAPLAGTCGVLLLSLVITLYCKRGRKKLLYIFKQPFMRPVQTTQEEDGCSCRFPEEEEGGCELRVKFSRSADAPAYQQGQNQLYNELNLGRREEYDVLDKRRGRDPEMGGKPRRKNPQEGLYNELQKDKMAEAYSEIGMKGERRRGKGHDGLYQGLSTATKDTYDALHMQALPPR
degranulation of scCAR-modified T cells (primary screening): ≥ 20%

B6: D10-v5 scCAR (other)
chain: QVQLKESGPGLVAPSQTLSITCTVSGFSLTSYGVHWVRQPPGKGLEWLGVIWAGGFTNYNSALKSRLSISKDNSKSQVLLKMTSLQTDDTAMYYCARRGSSYSMDYWGQGTSVTVSSGGGGSGGGGSGGGGSEIVLSQSPAITAASLGQKVTITCSASSNVSYIHWYQQRSGTSPRPWIYEISKLASGVPVRFSGSGSGTSYSLTISSMEAEDAAIYYCQQWNYPLITFGSGTKLEIQEPKSPDKTHTCPPCPAPPVAGPSVFLFPPKPKDTLMIARTPEVTCVVVDVSHEDPEVKFNWYVDGVEVHNAKTKPREEQYNSTYRVVSVLTVLHQDWLNGKEYKCKVSNKALPAPIEKTISKAKGQPREPQVYTLPPSRDELTKNQVSLTCLVKGFYPSDIAVEWESNGQPENNYKTTPPVLDSDGSFFLYSKLTVDKSRWQQGNVFSCSVMHEALHNHYTQKSLSLSPGKIYIWAPLAGTCGVLLLSLVITLYCKRGRKKLLYIFKQPFMRPVQTTQEEDGCSCRFPEEEEGGCELRVKFSRSADAPAYQQGQNQLYNELNLGRREEYDVLDKRRGRDPEMGGKPRRKNPQEGLYNELQKDKMAEAYSEIGMKGERRRGKGHDGLYQGLSTATKDTYDALHMQALPPR
cytotoxic activity of scCAR-modified T cells, specific lysis of PC-3 cells: > 20%
degranulation of scCAR-modified T cells (primary screening): ≥ 20%
degranulation of scCAR-modified T cells (secondary screening): ≥ 20%
production of IFNγ by scCAR-modified T cells: ≥ 1500 pg/mL

From patent US20170283497A1 (CELLECTIS, published 2017)
